From patent US20250387450A1

Target: CD74 disordered region peptide (CLIP), …
Test: modified sandwich ELISA, fluorescence grade by the table's key

FlhG was tested, and the fluorescent signal (fluorescentsignal) was 100000 to 250000.
